Test results as given in US8022177B2, “Peptides and calcium regulation in mammalian cells” (The Board of Trustees of the University of Illinois, priority 2005, dated 2011).

B1: γ4: rat calcium channel γ4 subunit (AF361341), SEQ ID NO:47 (protein, listed as Rattus norvegicus)
chain: MVRCDRGLQMLLTTAGAFAAFSLMAIAIGTDYWLYSSAHICNGTNLTMDDGPPPRRARGDLTHSGLWRVCCIEGIYKGHCFRINHFPEDNDYDHDSSEYLLRIVRASSVFPILSTILLLLGGLCIGAGRIYSRKNNIVLSAGILFVAAGLSNIIGIIVYISSNTGDPSDKRDEDKKNHYNYGWSFYFGALSFIVAETVGVLAVNIYIEKNKELRFKTKREFLKASSSSPYSRMPSYRYRRRRSRSSSRSTEASPSRDASPVGLKITGAIPMGELSMYTLSREPLKVTTAASYSPDQDAGFLQMHDFFQQDLKEGFHVSMLNRRTTPV
B2: γ6L: rat calcium channel γ6 subunit, long isoform (AF361343), SEQ ID NO:48 (protein, listed as Rattus norvegicus)
chain: MMWSNFFMQEEDRRRTAVGRRRAQEQQNLGLTPEREGKIKLGLLVAIVGATLAVLAVGTEFWVELNTYKTNGSAVCEAAHLGLWKVCIKRLWQADVPAGRETCGPAELPGEANCTYFKFFTTGENAHIFQRTTKKEVNLAAAVIAVLGLTAMALGCLCVIMVLSKGAEFLLRLGAVCFGLSGLLLFVSLEVFRHSVRALLQGVNPETPPAPRLAYEYSWSLGCGVGAGLILLLGGVCFLLLTLPSWPWRSLCPKRGGPTA

Key:
[1] = system: endogenous LVA calcium current in HL-1 cells; experiment: Whole-cell patch clamp of endogenous LVA calcium current in HL-1 cells transfected with γ subunits; type: cell-based, mouse
Description: HL-1 cells were a gift from Dr. William C. Claycomb and were maintained as previously reported. Briefly, HL-1 cells were grown in HL-1 medium containing Claycomb medium (JRH Biosciences) supplemented with 10% fetal bovine serum (JRH Biosciences), 0.1 mM norepinephrine (Sigma), 2 mM L-glutamine (Sigma), and 100 U/ml:100 μg/ml:250 ng/ml of penicillin/streptomycin/ amphotericin B (Life Technologies) in a humidified 5% CO2 incubator at 37° C. Cells were passed when confluent at a 1:3 dilution into flasks or plates pre-coated with a 1:80 dilution of fibronectin and 0.02% gelatin (Sigma). Cells from passages 86-108 were used for this study.
2.3. Transfection. Untransfected HEK-293 cells, HEK-293 cell lines stably transfected with Cav3.1, and HL-1 cells were transiently transfected with vectors containing γ subunit, GFP, and modified CFP cDNAs using Lipofectamine 2000 reagent (InVitrogen) as per the manufacturer's recommendations. HEK-293 cells were grown to 70-80% confluence before transfection. HL-1 cells were grown to 50-75% confluence before transfection.
2.4. Electrophysiology. Whole-cell calcium currents were recorded using an Axopatch-1 D patch clamp system and Clampex 8.0 software. Pipettes were fabricated from borosilicate glass and had typical resistances of 2-4 MΩ. […]
Recordings from HEK-293 cells were made 48-96 h posttransfection, at which time expression, as measured by GFP fluorescence, peaked. […] Current-voltage relationships for all HEK-293 and HL-1 cells were measured using 50 ms test depolarizations. Peak current amplitudes for activation curves were determined by fitting tail currents, elicited by stepping membrane voltage from varying test potentials to −60 mV, with the Boltzman equation. […] Inactivation curves were determined by fitting peak amplitudes of currents, observed in a test pulse to −20 mV, following 500 ms steps to varying potentials, with the Boltzman equation. Time to peak was determined using the current-voltage protocol described above. […]

Cav3.1 = molecular target: T1, Cav3.1 (Homo sapiens, UniProt O43497); experiment: Co-immunoprecipitation of Flag-tagged γ subunits with Cav3.1; type: binding
T1 construct: expressed in transfected cells; host or cells: HEK-293, stably transfected
T1 sequence (O43497 whole entry): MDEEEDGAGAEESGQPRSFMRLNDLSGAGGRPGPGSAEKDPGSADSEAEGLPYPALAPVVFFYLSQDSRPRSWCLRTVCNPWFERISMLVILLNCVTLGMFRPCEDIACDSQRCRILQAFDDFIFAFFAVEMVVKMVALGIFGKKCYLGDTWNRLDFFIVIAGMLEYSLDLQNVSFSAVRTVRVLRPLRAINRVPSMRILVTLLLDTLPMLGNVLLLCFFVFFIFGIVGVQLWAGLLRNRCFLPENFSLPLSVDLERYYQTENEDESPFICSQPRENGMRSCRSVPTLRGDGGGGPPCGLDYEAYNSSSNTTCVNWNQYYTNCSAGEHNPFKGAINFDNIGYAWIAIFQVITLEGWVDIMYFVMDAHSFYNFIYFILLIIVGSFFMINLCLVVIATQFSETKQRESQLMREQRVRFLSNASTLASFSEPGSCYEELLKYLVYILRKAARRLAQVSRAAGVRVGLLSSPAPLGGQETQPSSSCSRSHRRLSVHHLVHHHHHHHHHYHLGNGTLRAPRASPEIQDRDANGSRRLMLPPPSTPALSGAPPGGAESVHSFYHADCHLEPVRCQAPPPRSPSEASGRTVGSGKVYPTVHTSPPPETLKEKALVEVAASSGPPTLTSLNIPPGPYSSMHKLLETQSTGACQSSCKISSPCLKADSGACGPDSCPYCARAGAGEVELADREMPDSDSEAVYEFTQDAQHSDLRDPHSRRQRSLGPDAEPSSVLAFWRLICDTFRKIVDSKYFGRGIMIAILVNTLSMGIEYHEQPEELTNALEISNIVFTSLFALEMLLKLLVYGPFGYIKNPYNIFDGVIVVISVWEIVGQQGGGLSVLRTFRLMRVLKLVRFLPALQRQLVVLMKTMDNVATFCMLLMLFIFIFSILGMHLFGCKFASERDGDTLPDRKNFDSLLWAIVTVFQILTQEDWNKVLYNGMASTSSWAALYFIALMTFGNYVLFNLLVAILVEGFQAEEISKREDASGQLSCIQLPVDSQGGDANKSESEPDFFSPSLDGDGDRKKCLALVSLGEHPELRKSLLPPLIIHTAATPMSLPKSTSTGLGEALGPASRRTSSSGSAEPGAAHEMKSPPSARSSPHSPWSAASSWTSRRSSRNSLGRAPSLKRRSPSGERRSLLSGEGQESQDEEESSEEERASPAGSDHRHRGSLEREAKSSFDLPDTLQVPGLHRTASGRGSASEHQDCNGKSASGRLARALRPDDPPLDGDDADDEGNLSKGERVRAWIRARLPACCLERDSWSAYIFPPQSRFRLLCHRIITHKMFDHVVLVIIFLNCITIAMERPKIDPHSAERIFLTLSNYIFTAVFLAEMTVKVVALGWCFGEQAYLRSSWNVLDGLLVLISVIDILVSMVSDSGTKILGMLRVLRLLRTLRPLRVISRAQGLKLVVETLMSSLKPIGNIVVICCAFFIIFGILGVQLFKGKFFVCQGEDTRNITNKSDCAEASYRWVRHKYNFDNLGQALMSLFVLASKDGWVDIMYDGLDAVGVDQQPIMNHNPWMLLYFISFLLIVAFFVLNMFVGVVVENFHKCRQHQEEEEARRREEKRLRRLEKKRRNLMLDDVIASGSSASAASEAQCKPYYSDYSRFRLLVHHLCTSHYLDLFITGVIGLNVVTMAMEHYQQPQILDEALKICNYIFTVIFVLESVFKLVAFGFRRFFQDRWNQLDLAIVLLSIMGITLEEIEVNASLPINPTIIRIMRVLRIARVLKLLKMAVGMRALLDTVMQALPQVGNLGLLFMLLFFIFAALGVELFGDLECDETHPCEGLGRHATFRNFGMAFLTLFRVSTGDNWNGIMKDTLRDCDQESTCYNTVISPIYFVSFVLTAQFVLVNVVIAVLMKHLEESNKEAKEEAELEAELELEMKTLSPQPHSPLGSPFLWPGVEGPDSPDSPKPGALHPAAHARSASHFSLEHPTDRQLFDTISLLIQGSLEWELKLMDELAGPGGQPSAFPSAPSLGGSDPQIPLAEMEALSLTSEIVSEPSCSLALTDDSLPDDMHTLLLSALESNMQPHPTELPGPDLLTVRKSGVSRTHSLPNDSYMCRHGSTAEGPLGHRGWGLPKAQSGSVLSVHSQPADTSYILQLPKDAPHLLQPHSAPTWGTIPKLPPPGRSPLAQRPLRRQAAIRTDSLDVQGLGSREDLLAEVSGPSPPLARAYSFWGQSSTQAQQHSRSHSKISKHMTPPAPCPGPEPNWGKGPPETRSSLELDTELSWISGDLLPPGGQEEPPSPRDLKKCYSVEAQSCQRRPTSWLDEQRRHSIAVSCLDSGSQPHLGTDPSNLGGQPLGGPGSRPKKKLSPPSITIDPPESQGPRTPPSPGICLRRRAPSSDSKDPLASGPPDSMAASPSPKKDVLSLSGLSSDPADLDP
Description: Immunoprecipitation and Immunodetection. HEK-293 cells stably transfected with Cav3.1 were grown in T25 tissue culture flasks and transiently transfected when 70-90% confluent. Five μg of each plasmid expression vector was transfected per T25 flask using 15 μL Lipofectamine 2000 reagent (Invitrogen, Carlsbad, Calif.) as per the manufacturer's recommendations. Cells were processed for immunoprecipitation assay and immunoblot analysis 24 hr post-transfection. Cells were washed and scraped from flasks with ice cold PBS (without Ca^2+ or Mg^+) and centrifuged for 5 min at 500×g at 4° C. Cell pellets were resuspended in 1.0 mL lysis buffer (50 mM Tris HCl, 150 mM NaCl, 1 mM EDTA, 2% Triton X-100, and 1:100 Protease Inhibitor Cocktail Set III (EMD Biosciences, San Diego, Calif.)) and incubated with constant mixing for 1 hr at 4° C. Samples were cleared by centrifugation at 10,000×g for 2 min at 4° C. Equal amounts of cell lysate were added to a 75 μL bed volume of anti-FLAG M2 affinity gel (Sigma, St. Louis, Mo.) that was washed three times with lysis buffer. Samples were immunoprecipitated with constant mixing overnight at 4° C. Beads were washed three times with lysis buffer and incubated in sample buffer containing 1% SDS, 50 mM DTT, and 10% glycerol for 30 minutes at 25° C. […]

Molecule	LVA current density [1] [pA/pF]	Interaction with Cav3.1 relative to γ6 (Cav3.1; Cav3.1 in anti-Flag immunoprecipitates, FIG. 36B)	Reduction of endogenous LVA current density from control ([1]; transient expression) [%]	Co-immunoprecipitation with Cav3.1 (Cav3.1; FIG. 36A)
B1	9.14±1.34	approximately 10 % of γ6	–	–
B2	3.37±0.62	–	63	robust coimmunoprecipittion
